Biological target: BG505 Olio6 trimer (HIV-1 (isolate BG505))
Test: SEC-MALS

BG505 Olio6 trimer (complex) was tested. Which stoichiometry N did it give?
Its stoichiometry N is 3.
